Measurements published in the supplement of paper PMC9170038.

System: MS2 coat protein
Assay: apparent KD of MS2 coat protein; designed switch direction (-1 OFF switch, 1 ON switch): 1; higher = weaker reporter binding
In short: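 The buffer was Tris-HCl pH 7.5 with KCl, MgCl2, BSA, DTT, tRNA and Tween-20. In it, SNAP-549-labelled MS2 coat protein was titrated in doubling steps from 0.7 or 1.5 nM to 3 µM over chip-bound RNA switches transcribed by stalled E. coli RNA polymerase on Illumina chips. Apparent KD is the per-design median over clusters of curve fits to normalised fluorescence.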

[1] = input ligand: microRNA oligo, concentration not stated
[2] = Eterna round: R95, input ligand: FMN 200 uM
[3] = Eterna round: R95, input ligand: microRNA oligo, concentration not stated
[4] = Eterna round: R95, input ligand: none

Sequence | apparent KD of MS2 coat protein (input ligand: FMN 200 uM) | apparent KD of MS2 coat protein [1] | apparent KD of MS2 coat protein (input ligand: none) | apparent KD of MS2 coat protein [2] | apparent KD of MS2 coat protein [3] | apparent KD of MS2 coat protein [4]
UAUGAAUUGCAAGGAUAUUGAUAACAUGAGGAUCACCCAUGUAAUUGUUCGAGUUAGAUUAGUUACAAGAAGGUGCUAUUGUUU [JR_SSNG2_Sub038] (Eterna round: R96, puzzle: Same State NG 2) | 0.35 µM | 0.459 µM | 0.337 µM | – | – | –
UAUUUAAUCGUAGGAUAUAGAGUGAAAUUUGGACUAGAAGGACGUAACAUGAGGAUCACCCAUGUGGUAAGUGGGACACAGUGU [JR_SSNG1_Sub038] (Eterna round: R96, puzzle: Same State NG 1) | 0.15 µM | 0.0668 µM | 0.0905 µM | – | – | –
UCAAGCGCACAUGAGGAUCACCCAUGUACCGAGAGUCGUCGUCGGAGAAUGAUGCAUGCUGCUGCUAUUCCACAUUA [Default title] (puzzle: Sensor for hsa-mir-208a version 2) | – | – | – | 0.0895 µM | 0.0668 µM | 0.0853 µM
UCUAGACAUGAGGAUCACCCAUGUCAAUAUGACACAGGAUAUCGGUACUCAUAGAGUACGCGAGAAGGGUGACUUC [Same State 1 - Mod of Vinnie Gere v.4] (puzzle: Same State 1) | – | – | – | 0.137 µM | 0.0455 µM | 0.0526 µM
UCUUGGUUUUUGCUCGUUUUUUGUGUUGAACAUGAGGAUCACCCAUGUAUUGUACGGUCCAAUUUAGUGGUAGUCCG [JMF 67] (puzzle: Sensor for hsa-mir-208a) | – | – | – | 0.0384 µM | 0.0253 µM | 0.0387 µM
UCUUGGUUUUUGCUCGUUUUUUGUGUUGAACAUGAGGAUCACCCAUGUAUUGUACGGUCCAAUUUGAUAGUGGUCCG [JMF 28] (puzzle: Sensor for hsa-mir-208a) | – | – | – | 0.0255 µM | 0.0149 µM | 0.0257 µM
UCUUGGUUUUUGCUCGUUUUUUGUGUUGAACAUGAGGAUCACCCAUGUAUUGUACGGUCCAAUUUGGUAAUGGUCCG [JMF 29] (puzzle: Sensor for hsa-mir-208a) | – | – | – | 0.0252 µM | 0.0156 µM | 0.0268 µM
UCUUGGUUUUUGCUCGUUUUUUGUGUUGAACAUGAGGAUCACCCAUGUAUUGUACGGUCCAGUUUAGUAGUGGUCCG [JMF 32] (puzzle: Sensor for hsa-mir-208a) | – | – | – | 0.026 µM | 0.0135 µM | 0.027 µM
UCUUGGUUUUUGCUCGUUUUUUGUGUUGAACAUGAGGAUCACCCAUGUAUUGUACGGUCCGGUUUGGUAAUGGUCCG [JMF 10] (puzzle: Sensor for hsa-mir-208a) | – | – | – | 0.0244 µM | 0.0161 µM | 0.0278 µM
UGACAAGUGGUAGGAUAUCCAUGACAUGAGGAUCACCCAUGUUCUUUUGGUGUCCGUCACGGACGGGAGAAGGACCAACAUGAG [Same State NG2 S3] (Eterna round: R96, puzzle: Same State NG 2) | 0.0101 µM | 0.00945 µM | 0.0129 µM | – | – | –
UGCAUACAUGAGGAUCACCCAUGUCAACUUAGUCGAGGAUAUGGGCAGCCCUGAGGCGAACCAGAAGGCGAAUUGU [JL-ss1-3.01 ViennaUCT mod] (puzzle: Same State 1) | – | – | – | – | 0.0945 µM | –
UGCCUGAGUCGAGGAUAUUAUGGAUCCUCUAAUACAUGAGGAUCACCCAUGUAAUUAAUUAUACAUGAGAAGGCGACUCAGGCA [SSNG2/12-A2] (Eterna round: R96, puzzle: Same State NG 2) | 0.278 µM | 0.00626 µM | 0.0662 µM | – | – | –
UGCUAGUGGGUAGGAUAUUUAGGAUAUGCGGAAGACUAAGUCUGUAGGUCACCUAACGCAGAAGGAGAGAAGGACCCUUCAGCU [pwkr ssNG2 2FMN + F9.29] (Eterna round: R96, puzzle: Same State NG 2) | 0.143 µM | 0.0168 µM | 0.0128 µM | – | – | –
